Measurements as given in the supplement of paper PMC9170038.

Test system: MS2 coat protein
Test: apparent KD of MS2 coat protein; designed switch direction (-1 OFF switch, 1 ON switch): -1; higher = weaker reporter binding
Procedure, shortened: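 Three titration conditions were used: no input, 200 uM small-molecule ligand, and an oligonucleotide input. In each, SNAP-549-labelled MS2 coat protein was raised from 0.7 or 1.5 nM, doubling, to 3 µM over designed RNA switches transcribed on Illumina chips by stalled E. coli RNA polymerase. Curve fits of normalised cluster fluorescence gave values whose per-design median over clusters is the apparent KD.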

[1] = input ligand: microRNA oligo, concentration not stated
[2] = Eterna round: R95, input ligand: FMN 200 uM
[3] = Eterna round: R95, input ligand: microRNA oligo, concentration not stated
[4] = Eterna round: R95, input ligand: none

Sequence	apparent KD of MS2 coat protein (input ligand: FMN 200 uM)	apparent KD of MS2 coat protein (input ligand: none)	apparent KD of MS2 coat protein [1]	apparent KD of MS2 coat protein [2]	apparent KD of MS2 coat protein [3]	apparent KD of MS2 coat protein [4]
GCCUACAGAGGAUAUACAAAUGUAUGAAACCUGUUUAGACGACAUGAGGAUCACCCAUGUAGAAGGCUGUGGGC [Eternabot (L1) Solution 85] (Eterna round: R97, puzzle: Exclusion 2)	285 nM	37.5 nM				
UGAGUGCUGCGAGGAUAUACAUGAGGAUCACCCAUGUUUACCUGUGAGGCUUUGCCUCACAGGUUGUAGAAGGCGCAGUACUCU [JL ENG2 1.15] (Eterna round: R96, puzzle: Exclusion NG 2)	10.2 nM	12.4 nM	9.11 nM			
UGUCAGAUGGUAGGAUAUCCAUAUCGAGUGUCCCUUUCCUAACAUGAGGAUCACCCAUGUCGGUGGGAGAAGGGCCGUAUGGUG [salish99_ExNG02_R04_034] (Eterna round: R96, puzzle: Exclusion NG 2)	12.5 nM	14.1 nM	11.5 nM			
CGAUGAGGAGUGAGGAUAUCGUGUUCGAAAGAACGUGAGAAGGCACAUGAGGAUCACCCAUGUGAACCUUGUCG [Omei Ex4B A10] (Eterna round: R97, puzzle: Brourd's mod of Exclusion 4)	22.5 nM	15.8 nM				
GGCCCUAGGGUCAGAUGCACAAGCUUUUUGCUCGUUUUAACAUGAGGAUCACCCAUGUCUAGUGGAUCUGAUCGGGU [Indiso] (puzzle: Sensor v3, turn-off variant 2)				18.2 nM	48.7 nM	17.4 nM
UAUAUAUAGUAAGGAUAUGUAUUUAGUUUAUAAACAGAAGGUACUGACAUGAGGAUCACCCAUGUUUUAGUGUGGGCAUGUAGA [JMF's solution 14] (Eterna round: R96, puzzle: Exclusion NG 1)			71.2 nM			
ACUUAUUGAGGAUAUACAGAAAAUUACAUGAGGAUCACCCAUGUUCUUCAAUGUAUAUAUGUAGAAGGCAGAAGAU [Mat - Exclusion 5 - JL Mod - D16] (Eterna round: R97, puzzle: Exclusion 5)	48.9 nM	14.5 nM				
CAAAGAUAAGGAUAUUGAAGGUUCGACAUGAGGAUCACCCAUGUUAUGUUGGAAAAGGGACAAGAAGGUAUGAAAU [salish99_ex5_r4_213] (Eterna round: R97, puzzle: Exclusion 5)	41.5 nM	40.3 nM				
AAACUGCAUGUGAGGAUAUGCACCGGCUAAACCGGGCAGAAGGCACAUGAGGAUCACCCAUGUCAUCCUAUUGC [Esleisus] (puzzle: Brourd's mod of Exclusion 4)					9.01 nM	
UAAAAGCUAGGAUAUGCAAGGUCCGACAUGAGGAUCACCCAUGUGCUCCUAUGCACAUUUGCAGAAGGAGCGAAAA [EX5 A.6] (Eterna round: R97, puzzle: Exclusion 5)	537 nM	83 nM				
AAUUUACAUGAGGAUCACCCAUGUGAGGAUAUAUAAAUAUAUAUGUUAUUGUAUGUUUGUAGAAGGCGCGUGAU [JR_Exc1_Sub031] (Eterna round: R97, puzzle: Exclusion 1)	145 nM	83.3 nM				
UACAUGAGGAUCACCCAUGUUUUGUCGUGUAUGGUAUUUAUCUAGGAUAUCAAUUGAUUUAGUUAUGAGAAGGAGAAUAUUAAU [JMF's solution 62] (Eterna round: R96, puzzle: Exclusion NG 3)	27.2 nM	30.1 nM	20.6 nM			
GACCGGGCAGGAUAUACAAAACCUCGGUGUAUUUUGGACCGACAUGAGGAUCACCCAUGUAGAAGGGCCUAAGG [Eternabot (Original) Solution 4] (Eterna round: R97, puzzle: Exclusion 2)	34.2 nM	23.6 nM				
ACUUAUAGAGGAUAUACAGAAUAUUACAUGAGGAUCACCCAUGUUCUUCAAUGUAUAUAAGUAGAAGGCUAAGGAU [Mat - Exclusion 5 - JL Mod - D4] (Eterna round: R97, puzzle: Exclusion 5)	183 nM	25.4 nM				
GUCACAUGGACAUAGGAUCACAUGAGGAUCACCCAUGUGACUAACAAGCUUUUUGCUCGUCUUAUGUCCAUGUGAAU [Stov1/15-A3] (Eterna round: R97, puzzle: Sensor, turn-off variant 1)	13 nM	12.9 nM				
GACUAGGCAGGAUAUACAUGAGGAUCACCCAUGUGUCUGCGAUAGGCACGUGAUUACUGUAGAAGGGCCUUGAC [Exclusion 3 - mod of a parushev design] (puzzle: Exclusion 3)					204 nM	
ACACAGCAAGGAUAUACAUGAGGAUCACCCAUGUGGCGGCCGUUACGGUAGGACUAGUGUAGAAGGUGCAUUGG [EX3 #33] (Eterna round: R97, puzzle: Exclusion 3)	167 nM	210 nM				

Sequence	apparent KD of MS2 coat protein (input ligand: FMN 200 uM)	apparent KD of MS2 coat protein (input ligand: none)	apparent KD of MS2 coat protein [1]	apparent KD of MS2 coat protein [2]	apparent KD of MS2 coat protein [3]	apparent KD of MS2 coat protein [4]
UUGGUUAUCUAUGGGAGUAACAUGAGGAUCACCCAUGUAUGUCUUGUUUUUUGUUCGUCAUAGGCCUUUUGUUUGGA [JR_SV3TOV1_Sub024] (puzzle: Sensor v3, turn-off variant 1)				28.6 nM	35 nM	29.8 nM
AUGAGCAGACGGAGAUCCAACAUGAGGAUCACCCAUGUCUCAAAAGCUUUUUGCUCAUCUUAUUGUACCUUGGUGCG [Mat - Sensor v3 - turn-off var 1 - JL Mod - D18] (puzzle: Sensor v3, turn-off variant 1)				161 nM	9.21 nM	170 nM
CGUACUGAAGUUAGGAUAUUGUCUCGGAUACGAAACAAGAAGGGACAUGAGGAUCACCCAUGUAGACAGUACGA [Malc #30 mod 4] (puzzle: Brourd's mod of Exclusion 4)				24.7 nM	27.1 nM	27.7 nM
GAGUAGCUAGGAUAUCGAAAACAUCACAUGAGGAUCACCCAUGUGCCGGGUGCUCAGAUGCGAGAAGGAGCAAAGA [Reatququ] (puzzle: Exclusion 5)				219 nM	131 nM	175 nM
GCUAGAGCAGGAUAUUUAGAUCCUCACAUGAGGAUCACCCAUGUGGUCGAAAGACUAAGAAGAGAAGGGCUCUAGC [Omei Ex5 E21] (Eterna round: R97, puzzle: Exclusion 5)	326 nM	944 nM				
UGUUUACAUGAGGAUCACCCAUGUCAGGAUAUGAUAUAUAUAUGGAAACAUAUAUAUAUCAGAAGGGACUAGUG [Jieuxxlusion 1 - Jieux - Exclusion 1] (Eterna round: R97, puzzle: Exclusion 1)	156 nM	87.7 nM				
GGUACUAACAGCUGACUGUUAGUACUGUAGGUUUGUGUUACAUGAGGAUCACCCAUGUCCUCAUAAGCUCGUCUUGU [JL-sv3-2.23 mat747 mod] (puzzle: Sensor v3, turn-off variant 2)				382 nM	252 nM	445 nM
AAUUAGCAAGCAAGAUCCCACAUGAGGAUCACCCAUGUGCUCGUCUUAUAAGGUACUGUGACGAAAGUCACGGUACC [Mat - Sensor, turn-off var - Eli Mod - D50] (Eterna round: R97, puzzle: Sensor, turn-off variant 1)	50.2 nM	54.8 nM				
AUGGAAGAGCAAUAGCUCUACAUGAGGAUCACCCAUGUAGGAAAUACUGGGUACAGCGGGCUUUUUGCUCGGCUUAU [Alacar Attempt 4] (Eterna round: R97, puzzle: Sensor, turn-off variant 1)	364 nM	412 nM				
AUUAUGUAAGGAUAUCUUACAUGUGACUUCGGUCACUGUUCAGAGAAGGUACAUGAGGAUCACCCAUGUAGAAC [Ex4-3: 46] (puzzle: Exclusion 4)					18 nM	
AGAGAGUCAGGAUAUGACGAAGAGAACAUGAGGAUCACCCAUGUAGCUUCGUAAUCAUCGUCAGAAGGGACGAACU [JR_Ex5_Sub090] (Eterna round: R97, puzzle: Exclusion 5)	14.7 nM	14.8 nM				
UUAUAUAAUGUGAGGAUAUGCUGGUCGAUAGAUCAGCAGAAGGCACAUGAGGAUCACCCAUGUAGUAAAUUUUA [Mat - Exclusion 4 - JL Mod - D13] (puzzle: Brourd's mod of Exclusion 4)				25.5 nM	16.4 nM	16.2 nM
AAGAAAGGUGACAUGGGCGACAUGAGGAUCACCCAUGUUACAAGCUUGUUGCUCGUCUUAUAAUUAACCCAUGUCAC [LRO Sensor-off var1-21 mod of Stov1-13-A1 by Brourd] (Eterna round: R97, puzzle: Sensor, turn-off variant 1)	16.1 nM	17.9 nM				
AAUUAGCAAGCGAGAUCCCACAUGAGGAUCACCCAUGUGCUCGUCUUAUAUAAGGUACUGUACGAAAGUACGGUACC [Mat - Sensor, turn-off var - Eli Mod - D31] (Eterna round: R97, puzzle: Sensor, turn-off variant 1)	16.4 nM	16.4 nM				
AGUAAGCUAGGAUAUGCUUUGGGAAAGCAUUCCUUCGAUAAACUUGAGGAUCACCCAAGUAGAAGGAGCUAAAU [jl-ex2.4.49 ViennaUCT mod] (Eterna round: R97, puzzle: Exclusion 2)	17.5 nM	15.4 nM				
AUUCGGAUAGGAUAUACUUGAGGAUCACCCAAGUGUUUGAACUAUCGUGAUCUGAAGAGUAGAAGGAUCAUCAU [Atquedzaed] (Eterna round: R97, puzzle: Exclusion 3)	176 nM	90.7 nM				
